Source: US20050282743A1, “Molecular interactions in cells” (Arbor Vita Corporation, priority 2001, published 2005)
Blank lines part the entries; values can stand above or below the binder they belong to.

Columns and labels:
Experiment in all cases: G' assay
[1] = molecular target: T1, GST-PTPL1 PDZ domain 4 (Homo sapiens (Human)), Q12923
T1 chain: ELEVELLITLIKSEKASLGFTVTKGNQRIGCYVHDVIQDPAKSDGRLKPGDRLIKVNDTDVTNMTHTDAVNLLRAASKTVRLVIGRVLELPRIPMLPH

[2] = molecular target: T2, GST-INADL PDZ domain 3 (Homo sapiens (Human)), Q8NI35
T2 chain: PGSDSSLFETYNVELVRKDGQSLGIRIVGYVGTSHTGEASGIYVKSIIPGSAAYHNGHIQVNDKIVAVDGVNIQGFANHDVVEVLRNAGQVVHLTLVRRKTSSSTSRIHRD

[3] = molecular target: T3, GST-AF6 PDZ domain 1 (Homo sapiens (Human)), P55196
T3 chain: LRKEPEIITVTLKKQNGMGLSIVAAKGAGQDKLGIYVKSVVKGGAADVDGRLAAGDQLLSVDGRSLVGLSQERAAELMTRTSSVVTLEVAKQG

[4] = molecular target: T4, GST-MINT1 PDZ domains 1, 2, Q02410
T4 chain: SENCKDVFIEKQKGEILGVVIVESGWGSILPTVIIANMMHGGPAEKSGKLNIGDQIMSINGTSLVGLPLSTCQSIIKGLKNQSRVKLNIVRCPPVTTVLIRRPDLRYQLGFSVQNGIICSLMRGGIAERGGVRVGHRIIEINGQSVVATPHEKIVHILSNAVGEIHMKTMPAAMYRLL

[5] = molecular target: GST-KIAA1634 PDZ domain 1 (Homo sapiens (Human)), Q5TCQ9
[6] = molecular target: T5, GST-Shank 1 PDZ domain 1 (Homo sapiens (Human)), Q9UPX8
T5 chain: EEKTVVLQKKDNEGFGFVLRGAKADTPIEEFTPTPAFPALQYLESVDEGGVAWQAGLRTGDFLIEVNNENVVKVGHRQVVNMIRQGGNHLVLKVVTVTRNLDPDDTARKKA

[7] = molecular target: GST-BAI-1 Associated Protein PDZ domain 6 (Homo sapiens (Human)), Q96QZ7
[8] = molecular target: T6, GST-EZRIN Binding Protein 50 PDZ domain 2 (Homo sapiens (Human)), O14745
T6 chain: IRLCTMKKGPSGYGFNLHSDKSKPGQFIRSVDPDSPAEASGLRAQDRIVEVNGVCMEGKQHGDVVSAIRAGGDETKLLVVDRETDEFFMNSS

[9] = molecular target: T7, GST-HEMBA 1003117 PDZ domain 1 (Homo sapiens (Human)), Q96JH8
T7 chain: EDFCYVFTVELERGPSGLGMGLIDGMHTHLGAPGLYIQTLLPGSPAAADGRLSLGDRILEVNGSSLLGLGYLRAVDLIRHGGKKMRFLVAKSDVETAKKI

[10] = molecular target: T8, GST-KIAA0807(S) PDZ domain 1 (Homo sapiens (Human)), Q6P0Q8
T8 chain: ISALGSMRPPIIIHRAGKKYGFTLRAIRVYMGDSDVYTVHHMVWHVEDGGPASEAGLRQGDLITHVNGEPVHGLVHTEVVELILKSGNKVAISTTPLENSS

[11] = molecular target: T9, GST-Shank 3 PDZ domain 1 (human (hypothetical, computer cloned)), Q9BYB0
T9 chain: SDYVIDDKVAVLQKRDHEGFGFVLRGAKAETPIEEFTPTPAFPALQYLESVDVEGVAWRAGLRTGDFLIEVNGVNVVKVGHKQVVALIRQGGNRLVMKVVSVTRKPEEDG

[12] = molecular target: T10, GST-APXL-1 PDZ domain 1 (Homo sapiens (Human)), Q13796
T10 chain: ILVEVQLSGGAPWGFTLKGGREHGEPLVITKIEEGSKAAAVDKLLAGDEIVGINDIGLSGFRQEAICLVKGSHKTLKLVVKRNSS

[13] = molecular target: T11, GST-KIAA0382 PDZ domain 1 (Canis lupus familiaris (Dog) (Canis familiaris)), A0A8I3
T11 chain: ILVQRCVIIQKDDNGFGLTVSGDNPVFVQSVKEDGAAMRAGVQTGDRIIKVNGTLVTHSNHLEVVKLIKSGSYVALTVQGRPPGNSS

[14] = molecular target: GST-KIAA0147 PDZ domain 1 (Homo sapiens (Human)), Q14160
[15] = molecular target: T12, GST-EZRIN Binding Protein 50 PDZ domain 1 (Homo sapiens (Human)), O14745
T12 chain: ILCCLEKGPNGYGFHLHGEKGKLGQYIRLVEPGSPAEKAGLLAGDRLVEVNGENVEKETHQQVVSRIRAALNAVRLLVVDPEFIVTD

[16] = molecular target: T13, GST-LIM-RIL PDZ domain 1 (Homo sapiens (Human)), P50479
T13 chain: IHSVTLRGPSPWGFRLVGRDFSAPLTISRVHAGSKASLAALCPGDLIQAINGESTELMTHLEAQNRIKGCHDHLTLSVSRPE

[17] = molecular target: T14, GST-LIM Mystique PDZ domain 1 (Homo sapiens (Human)), Q96JY6
T14 chain: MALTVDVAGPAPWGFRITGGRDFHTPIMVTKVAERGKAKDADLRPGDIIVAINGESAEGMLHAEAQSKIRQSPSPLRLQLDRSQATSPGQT

[18] = molecular target: GST-Atrophin-1 Interacting Protein PDZ domain 5 (Rattus norvegicus (Rat)), O88382
[19] = molecular target: GST-KIAA807 [GST: P08515]
[20] = molecular target: GST-KIAA1634 PDZ domain 5 (Homo sapiens (Human)), Q5TCQ9
[21] = molecular target: T15, GST-FLJ 10324 PDZ domain 1 [GST: P08515]
T15 chain: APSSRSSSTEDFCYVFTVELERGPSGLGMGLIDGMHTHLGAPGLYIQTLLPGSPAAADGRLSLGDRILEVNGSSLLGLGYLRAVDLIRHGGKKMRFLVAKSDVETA

[22] = molecular target: T16, GST-PDZK1 PDZ domains 2, 3, 4, Q5T2W1
T16 chain: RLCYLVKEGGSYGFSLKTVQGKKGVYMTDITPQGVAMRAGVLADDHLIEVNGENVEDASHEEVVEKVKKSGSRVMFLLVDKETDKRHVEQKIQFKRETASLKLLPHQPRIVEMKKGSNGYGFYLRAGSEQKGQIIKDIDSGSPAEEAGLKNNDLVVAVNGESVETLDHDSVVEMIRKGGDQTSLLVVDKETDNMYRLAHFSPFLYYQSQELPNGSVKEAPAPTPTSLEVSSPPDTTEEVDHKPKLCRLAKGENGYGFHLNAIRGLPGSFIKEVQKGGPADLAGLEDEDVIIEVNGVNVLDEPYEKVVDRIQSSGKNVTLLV

[23] = molecular target: T17, GST-Syntrophin 1 alpha PDZ domain 1 (Homo sapiens (Human)), Q13424
T17 chain: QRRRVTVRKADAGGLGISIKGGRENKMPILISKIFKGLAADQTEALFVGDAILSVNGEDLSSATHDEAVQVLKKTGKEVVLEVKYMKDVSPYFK

[24] = molecular target: T18, GST-KIAA1719 PDZ domain 6 (Homo sapiens (Human)), Q9C0E4
T18 chain: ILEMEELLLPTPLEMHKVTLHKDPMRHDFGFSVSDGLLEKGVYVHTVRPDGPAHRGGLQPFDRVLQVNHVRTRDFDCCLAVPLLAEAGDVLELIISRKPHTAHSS

[25] = molecular target: GST-PAR3 PDZ domain 3 (Homo sapiens (Human)), Q8TEW0
[26] = molecular target: T19, GST-MINT1 PDZ domain 2 (Mus musculus (Mouse)), B2RUJ5
T19 chain: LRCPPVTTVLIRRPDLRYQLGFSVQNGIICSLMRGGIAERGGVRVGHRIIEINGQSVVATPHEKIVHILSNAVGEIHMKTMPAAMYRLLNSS

[27] = molecular target: T20, GST-MUPP1 PDZ domain 11 (Homo sapiens (Human)), O75970
T20 chain: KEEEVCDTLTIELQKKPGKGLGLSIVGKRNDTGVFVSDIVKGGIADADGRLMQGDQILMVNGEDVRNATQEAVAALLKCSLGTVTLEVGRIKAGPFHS
Also: key of the grades not given here.

Sequence of GST-KIAA807 [GST: P08515] (P08515 whole entry, the tested form may be a part): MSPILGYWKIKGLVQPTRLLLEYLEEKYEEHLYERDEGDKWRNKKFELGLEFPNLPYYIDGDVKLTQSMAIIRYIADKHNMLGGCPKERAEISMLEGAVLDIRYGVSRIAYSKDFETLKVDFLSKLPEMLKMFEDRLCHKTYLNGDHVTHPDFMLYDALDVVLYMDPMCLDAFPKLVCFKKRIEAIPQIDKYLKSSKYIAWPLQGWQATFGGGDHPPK
Sequence of GST-BAI-1 Associated Protein PDZ domain 6 (Homo sapiens (Human)), Q96QZ7 (Q96QZ7 1143-1233): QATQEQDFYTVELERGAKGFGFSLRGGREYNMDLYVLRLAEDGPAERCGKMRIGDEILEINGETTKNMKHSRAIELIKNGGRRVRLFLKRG
Sequence of GST-PAR3 PDZ domain 3 (Homo sapiens (Human)), Q8TEW0 (Q8TEW0 579-681): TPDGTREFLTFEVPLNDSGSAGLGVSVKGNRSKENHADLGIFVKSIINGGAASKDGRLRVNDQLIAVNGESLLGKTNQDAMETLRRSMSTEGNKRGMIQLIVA
Sequence of GST-KIAA1634 PDZ domain 1 (Homo sapiens (Human)), Q5TCQ9 (Q5TCQ9 401-502): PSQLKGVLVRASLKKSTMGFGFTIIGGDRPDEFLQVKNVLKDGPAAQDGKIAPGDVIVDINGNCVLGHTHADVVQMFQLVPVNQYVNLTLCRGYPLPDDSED
Sequence of GST-Atrophin-1 Interacting Protein PDZ domain 5 (Rattus norvegicus (Rat)), O88382 (O88382 1128-1225): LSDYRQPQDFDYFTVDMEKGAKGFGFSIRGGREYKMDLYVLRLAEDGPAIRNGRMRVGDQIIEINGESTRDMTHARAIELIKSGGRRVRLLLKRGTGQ
Sequence of GST-KIAA0147 PDZ domain 1 (Homo sapiens (Human)), Q14160 (Q14160 other isoform, or with tags, fused parts or gaps): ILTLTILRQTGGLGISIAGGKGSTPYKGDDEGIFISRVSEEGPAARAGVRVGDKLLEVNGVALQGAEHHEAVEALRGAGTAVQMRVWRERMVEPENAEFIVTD
Sequence of GST-KIAA1634 PDZ domain 5 (Homo sapiens (Human)), Q5TCQ9 (Q5TCQ9 other isoform, or with tags, fused parts or gaps): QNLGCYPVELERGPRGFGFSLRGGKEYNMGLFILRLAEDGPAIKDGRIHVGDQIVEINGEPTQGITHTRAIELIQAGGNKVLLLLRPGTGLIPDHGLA

Binder: YSQPSARSEGEFKQTSSFLV (modifications not checked) [JAM (junctional adhesion molecule)]
Classification [1]: 1 A450 class | Classification [2]: 1 A450 class | Classification [3]: 1 A450 class

Binder: LASKSAEEGKQIPDSLSTDL (modifications not checked) [DOCK2]
Classification [6]: 1 A450 class | Classification [7]: 1 A450 class | Classification [8]: 2 A450 class | Classification [9]: 1 A450 class | Classification [10]: 4 A450 class | Classification [2]: 1 A450 class | Classification [11]: 1 A450 class | Classification [12]: 2 A450 class | Classification [13]: 1 A450 class | Classification [14]: 1 A450 class | Classification [15]: 1 A450 class | Classification [16]: 1 A450 class | Classification [17]: 1 A450 class | Classification [18]: 1 A450 class | Classification [19]: 5 A450 class | Classification [20]: 1 A450 class | Classification [21]: 1 A450 class

Binder: DAKLKSDGTIAAITEKETHF (modifications not checked) [GABA transporter 3]
Classification [6]: 1 A450 class | Classification [10]: 1 A450 class | Classification [12]: 1 A450 class | Classification [22]: 1 A450 class | Classification [23]: 1 A450 class | Classification [19]: 1 A450 class

Binder: QGDPALQDAGDSSRKEYFI (modifications not checked) [Glycophorin C]
Classification [24]: 1 A450 class | Classification [25]: 2 A450 class

Other lines, results leading:

Classification [4]: 2 A450 class | Classification [5]: 1 A450 class | Classification [3]: 2 A450 class
Binder: SSPDSSYQGKGFVMSRAMYV (modifications not checked) [Nectin 2]

Classification [24]: 1 A450 class | Classification [26]: 1 A450 class | Classification [27]: 1 A450 class | Classification [13]: 1 A450 class
Binder: RIAYSLLGLKDQVNTVGIPI (modifications not checked) [ephrin A2]
